No end group written: not given here.

Test [1] has as its target T1, human SEMG2 full-length protein (human, UniProt Q02383 24-582, limits assumed).
T1 construct: also called SEMG2 protein; semenogelin 2
T1 sequence: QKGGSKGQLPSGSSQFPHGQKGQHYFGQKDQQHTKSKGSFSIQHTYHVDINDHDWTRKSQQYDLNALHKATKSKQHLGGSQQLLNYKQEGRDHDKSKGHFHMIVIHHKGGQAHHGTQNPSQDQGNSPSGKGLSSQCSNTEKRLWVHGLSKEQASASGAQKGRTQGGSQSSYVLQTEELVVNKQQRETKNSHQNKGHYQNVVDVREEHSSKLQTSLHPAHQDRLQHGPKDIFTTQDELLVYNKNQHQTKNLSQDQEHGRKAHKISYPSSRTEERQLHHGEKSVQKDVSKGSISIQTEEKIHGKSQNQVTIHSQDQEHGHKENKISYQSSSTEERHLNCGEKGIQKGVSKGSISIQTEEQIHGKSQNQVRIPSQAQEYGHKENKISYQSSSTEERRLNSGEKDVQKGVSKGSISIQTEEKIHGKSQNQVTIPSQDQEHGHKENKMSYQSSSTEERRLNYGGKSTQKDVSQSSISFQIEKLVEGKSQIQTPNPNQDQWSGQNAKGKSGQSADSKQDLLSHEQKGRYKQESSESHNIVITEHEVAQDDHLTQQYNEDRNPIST
Briefly: ELISA (FIG. 21B-D). (In general: An ELISA detects its analyte on a solid surface through an enzyme-linked reagent.)

The target in test [2] is T2, BSA-conjugated human SEMG2 (497-509) polypeptide (human, also: coupled to BSA, site not given here).
T2 peptide: QIEKLVEGKSQIQ
Description: ELISA (FIG. 21B-D).

In test [3] the target is T1, human SEMG2 full-length protein. Description: ELISA on SEMG2; the EC50 table prints no unit, the axis is log (antibody concentration, nM).
The target in test [4] is T2, BSA-conjugated human SEMG2 (497-509) …. Description: ELISA on BSA-S2 (497-509); curve without upper plateau; the EC50 table prints no unit, the axis is log (antibody concentration, nM).
In test [5] the target is T1, human SEMG2 full-length protein. Briefly: biolayer interferometry (ForteBio Blitz or Gator). The protocol: The equilibrium dissociation constant (KD) of the antibody of the present invention binding to human SEMG2 was determined by biolayer interferometry (ForteBio Bltz or Gator instrument). […] 100 μl of SD buffer, antibody and SEMG2 were added to a 96-well black polystyrene half area microplate, respectively. Select the sensor location based on the sample location layout. KD values were analyzed using molecular interaction analysis software. In the experiments of the assays, the affinity constants of murine monoclonal antibodies and human antibodies H88-67, H88-93 and H88-96 are shown in Table 8, and the affinity and dissociation curves of SEMG2 and corresponding proteins are shown in FIG. 25.

Test [6] shares this target. Briefly: ELISA on SEMG2; the EC50 table prints no unit, the axis is log (antibody concentration, nM). The source holds these as a separate data set.
The target of test [7] is T3, human CD27 (HA-tagged, expressed in HEK293 cells) (human, UniProt P26842 20-260, limits assumed).
T3 construct: Plasmid printed as 'pcDNA3-HA-CD2'; not shown: HA tag
T3 sequence (looked up): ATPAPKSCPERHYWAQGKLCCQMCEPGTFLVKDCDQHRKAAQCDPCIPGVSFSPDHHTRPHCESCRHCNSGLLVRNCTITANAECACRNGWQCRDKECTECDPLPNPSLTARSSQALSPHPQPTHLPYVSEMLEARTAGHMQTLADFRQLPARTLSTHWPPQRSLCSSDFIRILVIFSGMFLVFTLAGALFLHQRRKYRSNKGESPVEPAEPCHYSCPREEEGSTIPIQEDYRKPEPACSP
Briefly: co-immunoprecipitation, HEK293 co-transfection. The protocol:
In co-immunoprecipitation experiment, cells were lysed in IP buffer (Thermo Scientific) and Roche complete protease inhibitor for 10 minutes, followed by the addition of benzonase (sigma) for 25 minutes at room temperature. The lysate was then centrifuged at 15,000 rpm at 4° C. to remove the precipitate. The supernatant was then incubated with primary antibody slowly rotated overnight at 4° C., followed by the addition of protein A or protein G dynabeads and incubated at 4° C. for 2 hours, washed for 4 times in PBST (PBS with 0.01% Tween 20), eluted with 50 mM DTT in SDS sample buffer for 10 minutes at 100° C., separated with SDS, and immunoblotted as previously described.
To further confirm which part of SEMG-2 binds to CD27, fragments of SEMG2 protein were designed. The amino acid sequence of full-length SEMG2 protein (SEQ ID NO:1) was divided into 6 segments of sequences, fused with GFP and named as SEMG2-P1, SEMG2-P2, SEMG2-P3, SEMG2-P4, SEMG2-P5 and SEMG2-P6 (See Table 1 for specific sequences, with corresponding abbreviation as P1-P6 respectively). Plasmids expressing these amino acid sequences were co-transfected with CD27 into HEK293 cells, and co-immunoprecipitation experiments were performed to identify the main fragment of SEMG2 that binds to CD27.

In test [8] the target is T1, human SEMG2 full-length protein. Briefly: ELISA on SEMG2 protein; the EC50 table prints no unit, the axis is log (antibody concentration, nM).
Test [9] shares this target. Description: ELISA on SEMG2; the EC50 table prints no unit, the axis is log (antibody concentration, nM). This is another data set of the same source.

B1: 96-10V-10 (antibody, V domains shown)
VH: QVQLLESGGGLVQPGGSLRLSCSASGFTFSSYAMHWVRQAPGKGLEYVSAISSNGGSTYYADSVKGRFTISRDNSKNTLYLQMSSLRAEDTAVYYCVIEGGSTGSTVSGAFDIWGQGTMVTVSS
VL: DIQMIQSPPSVSASVGDTVTIACRANQGIDSWLAWYQQKPGRAPKLLIYSASRLQSGVPSRFSGGGSGTDFALTISNLQPEDFATYYCQQALSLPITFGQGTRLEIK
A word on the EC50: it is the concentration needed to bring the measured effect to its halfway point. On to B1, for which the “fold higher affinity than the parent antibody (H88-96)” value in [1] and in [2] was more than 10 fold in each case. Also, the EC50 in test [3] stood at 0.358 nM; in test [4], 32.2 nM.

B2: H88-96 (antibody, V domains shown)
VH: QVQLLESGGGLVQPGGSLRLSCSASGFTFSSYAMHWVRQAPGKGLEYVSAISSNGGSTYYADSVKGRFTISRDNSKNTLYLQMSSLRAEDTAVYYCVIEGGSTTGTTSGAFDIWGQGTMVTVSS
VL: DIQMIQSPPSVSASVGDTVTIACRANQGIDSWLAWYQQKPGRAPKLLIYSASRLQSGVPSRFSGGGSGTDFALTISNLQPEDFATYYCQQALSLPITFGQGTRLEIK
notes: Fully human full-length antibody built from a phage Fab
The Kd is the concentration at which binding is half-saturated. For B2, the Kd in test [5] was found to be 14 nM. In addition, the EC50 in [6] stood at 9.3 nM; in test [3], 14 nM; in [4], 95.7 nM.

B3: SEMG2-P1 fused with GFP (other)
chain: GSFSIQHTYHVDINDHDWTRKSQQYDLNALHKATKSKQHLGGSQQLLNYKQEGRDHDKSKGHFHMIVIHHKGGQAHHGT
notes: not shown: GFP fusion partner
In the case of B3, in test [7], the binding result is on record as “no binding”. As to EQKGRYKQESSESHNIVITEHEVAQDDHLTQQYNEDRNPIST (other, also: fused to GFP, variant, linker and side of fusion not given here, not shown: GFP fusion partner) [SEMG2-P6 fused with GFP], in [7], the binding result is “no binding”.

B4: MM05V4V2 (antibody, V domains shown)
VH: QVQLVQSGAEVKKPGASVKVSCKASGYTFTSYWMNWVRQAPGQGLEWVGMIDPSDSETHYAQKFQGRVTITADKSTSTVYMELSSLRSEDTAVYYCARYLGGKEGSFDYWGQGTLVTVSS
VL: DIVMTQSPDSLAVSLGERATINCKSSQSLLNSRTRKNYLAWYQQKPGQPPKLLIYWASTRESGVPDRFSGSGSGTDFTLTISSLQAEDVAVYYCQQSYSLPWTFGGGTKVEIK
notes: humanized MM05 antibody, one member of the group m49
The molecule B4 came in with an EC50 in test [8] of 0.18 nM. This lies in the sub-nanomolar range.

B5: MM05V4V1 (antibody, V domains shown)
VH: QVQLVQSGAEVKKPGASVKVSCKASGYTFTSYWMNWVRQAPGQGLEWVGMIDPSDSETHYAQKFQGRVTITADKSTSTVYMELSSLRSEDTAVYYCARYLGGKEGSFDYWGQGTLVTVSS
VL: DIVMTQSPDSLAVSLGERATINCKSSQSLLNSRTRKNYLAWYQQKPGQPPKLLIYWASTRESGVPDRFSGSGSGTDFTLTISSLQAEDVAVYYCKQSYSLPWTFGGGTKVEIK
notes: as for B4
In the case of B5, the EC50 in test [8] is 0.123 nM.

B6: MM05V3V2 (antibody, V domains shown)
VH: QVQLVQSGAEVKKPGASVKVSCKASGYTFTSYWMNWVRQAPGQGLEWVGMIDPSDSETHYAQKFQGRVTITVDKSTSTVYMELSSLRSEDTAVYYCARYLGGKEGSFDYWGQGTLVTVSS
VL: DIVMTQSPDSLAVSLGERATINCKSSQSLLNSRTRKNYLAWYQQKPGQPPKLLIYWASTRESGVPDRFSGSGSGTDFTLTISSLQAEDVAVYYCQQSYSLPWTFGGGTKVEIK
notes: as for B4
Regarding B6, the midpoint of the response in test [8], the EC50, lay at 0.092 nM.

B7: SEMG2-P4 fused with GFP (other)
chain: EYGHKENKISYQSSSTEERRLNSGEKDVQKGVSKGSISIQTEEKIHGKSQNQVTIPSQDQEHGHKENKMSYQSSSTEERRLNYGGKSTQKDVSQSSIS
notes: not shown: GFP fusion partner
On to B7, for which the binding result in test [7] was “no binding”.

B8: SEMG2-P2 fused with GFP (other)
chain: QNPSQDQGNSPSGKGLSSQCSNTEKRLWVHGLSKEQASASGAQKGRTQGGSQSSYVLQTEELVVNKQQRETKNSHQNKGHYQNVVDVREEHSSKLQTSLHPAHQDRLQHGPKDIFTTQDELLVYNKNQHQTKNLSQDQEHGR
notes: not shown: GFP fusion partner
Turning to B8, in test [7], the binding result was “no binding”.

B9: H88-67 (antibody, V domains shown)
VH: QVQLLESGGGVVQPGRSLRLSCAASGFTFSSYAMHWVRQAPGKGLEWVAVISYDGSNKYYADSVKGRFTISRDNSKNTLYLQMNSLRAEDTAVYYCARMDGSGSPDYWGQGTLVTVSS
VL: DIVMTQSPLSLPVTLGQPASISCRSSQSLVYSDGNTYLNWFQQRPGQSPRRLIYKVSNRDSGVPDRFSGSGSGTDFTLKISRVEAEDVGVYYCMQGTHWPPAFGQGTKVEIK
notes: as for B2
In test [5], B9 displayed a Kd of 28.4 nM. In addition, the EC50 in [6] turned out to be 0.863 nM; in [9] it was 2.13 nM; in [4] it was 57.5 nM.

B10: SEMG2-P3 fused with GFP (other)
chain: KAHKISYPSSRTEERQLHHGEKSVQKDVSKGSISIQTEEKIHGKSQNQVTIHSQDQEHGHKENKISYQSSSTEERHLNCGEKGIQKGVSKGSISIQTEEQIHGKSQNQVRIPSQAQ
notes: not shown: GFP fusion partner
On to B10, for which the binding result in test [7] is reported as “no binding”.

For the origin of these results see US20230080534A1 (SHANGHAI BIOTROY BIOTECHNIQUE, published 2023).
